Measurements published in article PMC4841768.

What was measured:
[1] = Western blot and immunostaining, transduced MEFs; conditions: glycan lost; control: OSFLAG-WTKM
[2] = Western blot, mESCs; conditions: glycan lost; control: fSOX2-Tg mESCs
[3] = immunofluorescence, mESCs; conditions: glycan lost; control: fSOX2-Tg mESCs
[4] = label-free LC-MS of TAD peptide; conditions: glycan lost; control: fSOX2-Tg mESCs
[5] = FLAG immunofluorescence, MEFs day 6; conditions: glycan lost; control: OSFLAG-WTKM

SOX2: S248A, sequence (chain, as listed by the source S248A): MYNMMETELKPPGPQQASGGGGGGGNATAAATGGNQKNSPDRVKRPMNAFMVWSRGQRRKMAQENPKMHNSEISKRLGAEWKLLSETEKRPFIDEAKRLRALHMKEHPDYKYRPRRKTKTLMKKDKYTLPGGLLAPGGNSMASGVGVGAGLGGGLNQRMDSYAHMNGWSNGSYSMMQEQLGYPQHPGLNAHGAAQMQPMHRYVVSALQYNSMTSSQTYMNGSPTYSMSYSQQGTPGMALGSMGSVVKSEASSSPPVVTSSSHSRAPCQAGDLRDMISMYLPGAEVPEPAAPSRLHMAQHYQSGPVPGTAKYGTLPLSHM

## SOX2: S248A
[1]
  expression_or_secretion: no change
[2]
  expression_or_secretion: no change
[3]
  localisation_or_trafficking: no change
[4]
  other: phosphorylation at S253, other: % of total TAD peptide: increases, 18.7 vs 10.9
[5]
  localisation_or_trafficking: no change
